Measurements taken from publication PMC9398120 (Molecular Cancer Therapeutics, 2021).

How the values were obtained:
recombinant CD73 [1] = biological target: T1, recombinant CD73 (Homo sapiens, UniProt P21589)
recombinant CD73 [2] = biological target: T1, recombinant CD73; test: AUC

T1 sequence (P21589 27-549): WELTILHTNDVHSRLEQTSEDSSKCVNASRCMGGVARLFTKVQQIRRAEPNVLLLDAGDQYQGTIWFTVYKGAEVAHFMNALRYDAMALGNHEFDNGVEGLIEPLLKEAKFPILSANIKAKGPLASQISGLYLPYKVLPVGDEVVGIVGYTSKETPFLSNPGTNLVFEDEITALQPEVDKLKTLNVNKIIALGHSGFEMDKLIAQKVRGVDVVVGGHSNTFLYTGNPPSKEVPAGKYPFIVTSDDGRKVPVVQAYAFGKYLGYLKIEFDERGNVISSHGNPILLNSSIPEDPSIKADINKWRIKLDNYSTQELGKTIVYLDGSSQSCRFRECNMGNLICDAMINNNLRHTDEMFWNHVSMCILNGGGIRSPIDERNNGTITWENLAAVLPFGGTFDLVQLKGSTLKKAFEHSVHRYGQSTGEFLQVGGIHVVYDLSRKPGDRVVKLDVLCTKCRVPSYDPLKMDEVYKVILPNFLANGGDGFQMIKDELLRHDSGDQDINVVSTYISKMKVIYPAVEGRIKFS

Kd (recombinant CD73 [1]): 0.074 nM
stoichiometry N (recombinant CD73 [2]): 1 mAb19 per CD73 (printed as 2:2)
B1: mAb19 (antibody, V domains shown)
VH: QVQLVQSGAEVKKPGDSVKVSCKASGYTFTTYWMHWVRQAPGQGLEWMGAIYPGLSDTTYNQKFKGKVTMTRDTSTSTVYMKLSSLRSEDTAVYYCARLLDYAMDYWGQGTLVTVSS
VL: DIQMTQSPSSLSASVGDRVTITCRASQDIRSYLNWHQQKPGKAPKLLIWYTSRLHSGVPSRFSGSGSGTDYTLTISSLQPEDFATYFCQQGETLPWTFGQGTKLEIK
